US20230241185A1, “COMPOSITION COMPRISING A DNA-DEGRADING ENZYME FOR USE IN A METHOD FOR THE TREATMENT OF IMMUNOSUPPRESSION AFTER ACUTE TISSUE INJURY” (Klinikum der Universität München, priority 2020, published 2023)
Where two headings read alike, the source gives them in different places. Residues, ends and D or L forms follow the SMILES beside them. *: point of attachment. Cbz = O=C(OCc1ccccc1)*; CH2F = FC*

Tests used:
splenic CD3^+ T cells = experiment: Splenic T cell counts by FACS after experimental stroke; type: in vivo, mice; conditions: i.p. 30 minutes after stroke surgery; Z-IETD-FMK 0.8 mg kg^−1, Z-LEHD-FMK; normalized to sham
Text: (§1) Mice were anaesthetized with isoflurane delivered in a mixture of 30% O2 and 70% N2O. An incision was made between the ear and the eye in order to expose the temporal bone. Mice were placed in supine position, and a laser Doppler probe was affixed to the skull above the middle cerebral artery (MCA) territory. The common carotid artery and left external carotid artery were exposed via midline incision and further isolated and ligated. A 2-mm silicon-coated filament (Doccol) was inserted into the internal carotid artery, advanced gently to the MCA until resistance was felt, and occlusion was confirmed by a corresponding decrease in blood flow (i.e., a decrease in the laser Doppler flow signal by 80%. After 60 minutes of occlusion, the animals were re-anesthetized, and the filament was removed. After recovery, the mice were kept in their home cage with ad libitum access to water and food. Sham-operated mice received the same surgical procedure, but the filament was […] in lieu of being advanced to the MCA. Body temperature was maintained at 37° C. throughout surgery in all mice via feedback-controlled heating pad. The overall mortality rate of animals subjected to MCA occlusion was approximately 20%. All animals in the sham group survived the procedure. Exclusion criteria: 1. Insufficient MCA occlusion (a reduction in blood flow to […] of the baseline value). 2. Death during the surgery. 3. Lack of brain ischemia as quantified post-mortem by histological analysis.
Anti-IL1β: Mice received two injections of antagonizing anti-IL-1β in sterile saline (clone: B122, InVivoMab, BioXcell, US), 1 hour prior to and 1 hour after surgery. Anti-IL-1β or the corresponding IgG control (Armenian hamster IgG, InVivoMab, BioXcell, US) was injected i.p. at a dose of 4 mg kg^−1 body weight in a final volume of 200 μl.
Anti-FasL: Mice received two injections of antagonizing anti-FasL in sterile saline (clone: MFL3, InVivoMab, BioXcell, US), 1 hour prior to and 1 hour after surgery. […]

[1] = system: caspase-1 activity in splenic CD11b^+ monocytes; experiment: FAM FLICA flow cytometry of caspase-1 activity (inflammasome activation) in splenic monocytes after stroke; type: in vivo, mice; conditions: caspase-8 or caspase-9 inhibitor vs vehicle, 18 h after stroke, normalized to sham
Text: as §1
Human recombinant DNase (hrDNase): 1000 U of human recombinant DNase (Roche, Switzerland) dissolved in incubation 1× buffer (40 mM Tris-HCl, 10 mM NaCl, 6 mM MgCl2, 1 mM CaCl2, pH 7.9, diluted in PBS, Roche) was injected i.v. in the tail vein 1 hour after surgery in a final volume of 100 μl. The control group was administered vehicle injections at the same volume, route, and timing as experimental animals.
Caspase-8 inhibitor (Z-IETD-FMK) & Caspase-9 inhibitor (Z-LEHD-FMK): The apoptosis inhibitors Z-IETD-FMK and Z-LEHD-FMK (R&D systems, US) in DMSO dissolved in PBS and injected i.p. 30 minutes after surgery. Z-LEHD-FMK was injected at a dose of […] body weight at a final volume of 200 μl. Z-IETD-FMK was injected at a dose of 0.8 mg kg^−1 body weight at a final volume of 100 μl. The control groups were administered vehicle injections at the same volume, route, and timing as experimental animals.
To detect the active forms of caspase-1 in blood, spleen, and bone marrow samples, cell suspensions were stained with the fluorescent inhibitor probe FAM-YVAD-FMK (FAM FLICA, BioRad, Germany) for 30 minutes at 37° C. according to the manufacturer's instructions. After washing, the cells were stained for CD45^+CD3^+ T cells and CD45^+Cd11b^+ monocytes. The flow cytometry data was acquired on a BD FACSVerse (for representative gating strategy, see FIG. 10B).

T cells = experiment: BMDMs stimulated with rIL-1β, then T cell co-culture: T cell death; type: cell-based, mice; conditions: T cells added to rIL-1β-stimulated BMDMs in fresh medium, FACS 180 minutes later
Method: Round-bottom tissue culture-treated 96-well plates were coated with 100 μl of PBS containing a mixture of […] purified NA/LE hamster anti-mouse CD3e (clone: 145-2C11, BD Pharmingen) and […] anti-mouse CD28 (clone: 37.51, Invitrogen), and then incubated overnight at 37° C. with 5% CO2. Spleens (wild type, Casp1^−/−) isolated from mice were homogenized into single splenocyte suspensions by using a 40 μm cell strainer followed by erythrolysis as described above. T cells were purified from splenocytes using a negative selection kit (MagniSort, Thermo Fisher) according to the manufacturer's instructions. Purity was reliably ≥90% as assessed by flow cytometry.
Control-treated BMDMs received only FBS-containing culture media. […] Stimulation by secreted factors (left), and 2. Cell-cell contact (right).

splenic T cells = experiment: rIL-1β i.p. injection in WT mice: T cell death in the spleen by FACS; type: in vivo; conditions: rIL-1β 100 or 1000 ng single i.p. injection, 6 h later
Method: (§2) Murine recombinant IL-1β: Recombinant IL-1β (401-ML, R&D systems, US) was diluted in sterile PBS and administered intraperitoneally at a dose of 100 or 1000 ng per mouse in a total volume of 100 μl. The control group was administered vehicle injections at the same volume, route and timing as experimental animals.
(§3) Mice were deeply anaesthetized with ketamine (120 mg/kg) and xylazine (16 mg/kg) and blood was drawn via cardiac puncture in 50 mM EDTA (Sigma-Aldrich). Plasma was isolated by centrifugation at 3,000 g for 10 minutes and stored at −80° C. until further use. The blood pellet was resuspended in DMEM and erythrocytes were lysed using isotonic ammonium chloride buffer. Immediately following cardiac puncture, mice were transcardially perfused with normal saline for dissection of bone marrow and spleen. […]
(§4) The anti-mouse antibodies listed below (see Table 1) were used for surface marker staining of CD45^+ leukocytes, CD45^+CD11b^+ monocytes (+FasL^+ expression), CD3^+ T cells, CD3^+CD4^+ Thelper cells, CD3^+CD8^+ Tcytotox cells and CD19^+ B cells (for representative gating strategy, see FIG. 10A). […] Flow cytometric data was acquired using a BD FACSverse flow cytometer (BD Biosciences) and analyzed using FlowJo software (Treestar).

monocytic FasL = experiment: rIL-1β i.p. injection in WT mice: monocytic FasL expression in the spleen by FACS; type: in vivo; conditions: rIL-1β 100 or 1000 ng single i.p. injection, 6 h later
Method: as §2, §3, §4

FasL on BMDMs = experiment: BMDMs treated with IL-1a, IL-1b or IL-18: FasL+ expression; type: cell-based, mice; conditions: BMDMs treated with 100 ng of IL-1a, IL-1b or IL-18 for 4 h
[2] = system: FasL^+CD11b^+ monocytes (BMDMs); conditions: BMDMs stimulated with rIL-1β in increasing doses, FACS 180 minutes after adding T cells

| Molecule | T cell death (splenic CD3^+ T cells) | caspase-1 activity in splenic CD11b+ monocytes [1] | caspase-1 activity in splenic CD11b+ monocytes ([1]; listed as C8i) | caspase-1 activity in splenic CD11b+ monocytes ([1]; listed as C9i) | T cell death (T cells) | T cell death (T cells; listed as recombinant IL-1β) | T cell death in the spleen (splenic T cells; listed as rIL-1b) | T cell death in the spleen (splenic T cells; listed as recombinant IL-1β) | monocytic FasL expression in the spleen (monocytic FasL) | monocytic FasL expression in the spleen (monocytic FasL; listed as recombinant IL-1β) | FasL+ expression normalized to untreated control (FasL on BMDMs) | ratio of FasL+CD11b+ monocytes / FasL expression [2] | ratio of FasL+CD11b+ monocytes / FasL expression ([2]; listed as recombinant IL-1β) |
| --- | --- | --- | --- | --- | --- | --- | --- | --- | --- | --- | --- | --- | --- |
| CC[C@H](C)[C@H](NC(=O)OCc1ccccc1)C(=O)N[C@@H](CCC(=O)OC)C(=O)N[C@H](C(=O)N[C@@H](CC(=O)OC)C(=O)CF)[C@@H](C)O [Z-IETD-FMK] (Cbz-IE(OMe)TD(OMe)-CH2F) | T cell death was only reduced in mice treated with the caspase-8 | neither affected caspase-1 activation in monocytes | Neither caspase-8 nor caspase-9 inhibitor showed differences in caspase-1 activity compared to the vehicle-treated mice |  |  |  |  |  |  |  |  |  |  |
| COC(=O)CC[C@H](NC(=O)[C@H](CC(C)C)NC(=O)OCc1ccccc1)C(=O)N[C@@H](Cc1cnc[nH]1)C(=O)N[C@@H](CC(=O)OC)C(=O)CF [Z-LEHD-FMK] (Cbz-LE(OMe)HD(OMe)-CH2F) |  | neither affected caspase-1 activation in monocytes |  | Neither caspase-8 nor caspase-9 inhibitor showed differences in caspase-1 activity compared to the vehicle-treated mice |  |  |  |  |  |  |  |  |  |
| rIL-1β: Murine recombinant IL-1β (401-ML, R&D systems) (protein, UniProt P10749 118-269, looked up) Interleukin-1 beta: VPIRQLHYRLRDEQQKSLVLSDPYELKALHLNGQNINQQVIFSMSFVQGEPSNDKIPVALGLKGKNLYLSCVMKDGTPTLQLESVDPKQYPKKKMEKRFVFNKIEVKSKVEFESAEFPNWYISTSQAEHKPVFLGNNSGQDIIDFTMESVSS |  |  |  |  | increased T cell death | increased FasL expression and T cell death but to a lesser degree than induced by the serum of stroke mice | dose-dependent increase in T cell death in the spleen | dose-dependently induced T cell death and FasL upregulation on myeloid cells | dose-dependent increase in associated monocytic FasL expression in the spleen | dose-dependently induced T cell death and FasL upregulation on myeloid cells | FasL upregulation on myeloid cells was predominantly induced by IL-1β | increased the ratio of FasL^+CD11b^+ monocytes | increased FasL expression and T cell death but to a lesser degree than induced by the serum of stroke mice |
